Measurements reported in EP1708961B1 (Abbott Biotherapeutics Corp., dated 2011).
Residue numbers refer to the chain shown, from its start. Names and notes keep the numbering of the source. Values joined by “and” are separate entries in the source; they are usually repeats but may differ in a detail not shown here. Equal values may be shown once. Blank lines part the entries; values can stand above or below the binder they belong to.

How the values were obtained:
recombinant human IP-10 [1] = molecular target: T1, recombinant human IP-10 (human, UniProt P02778 22-98); assay: cell-based or functional assay
T1 sequence: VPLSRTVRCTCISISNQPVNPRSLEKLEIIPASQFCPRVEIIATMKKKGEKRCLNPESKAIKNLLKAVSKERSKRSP

recombinant human IP-10 [2] = molecular target: T1, recombinant human IP-10; assay: competition ELISA on coated human IP-10, competitor: biotinylated MuAIP12; Exp. B
recombinant human IP-10 [3] = molecular target: T1, recombinant human IP-10; assay: competition ELISA on coated human IP-10, competitor: biotinylated MuAIP12; Exp. C
recombinant human IP-10 [4] = molecular target: T1, recombinant human IP-10; assay: Biacore (SPR)
recombinant human IP-10 [5] = molecular target: T1, recombinant human IP-10; assay: competition ELISA on coated human IP-10, competitor: biotinylated MuAIP12; Exp. A
recombinant human IP-10 [6] = molecular target: T1, recombinant human IP-10; assay: competition ELISA on coated human IP-10, competitor: biotinylated MuAIP12; average
recombinant human IP-10 [7] = molecular target: T1, recombinant human IP-10; assay: competition ELISA on coated human IP-10, competitor: biotinylated MuAIP12; Exp. D
recombinant human IP-10 [8] = molecular target: T1, recombinant human IP-10; assay: competition ELISA on coated human IP-10, competitor: biotinylated MuAIP13; Exp. A
recombinant human IP-10 [9] = molecular target: T1, recombinant human IP-10; assay: competition ELISA on coated human IP-10, competitor: biotinylated MuAIP13; average
recombinant human IP-10 [10] = molecular target: T1, recombinant human IP-10; assay: competition ELISA on coated human IP-10, competitor: biotinylated MuAIP13; Exp. C
recombinant human IP-10 [11] = molecular target: T1, recombinant human IP-10; assay: competition ELISA on coated human IP-10, competitor: biotinylated MuAIP13; Exp. B
recombinant human IP-10 [12] = molecular target: T1, recombinant human IP-10; assay: competition ELISA on human IP-10, competitor: AIP13
recombinant human IP-10 [13] = molecular target: T1, recombinant human IP-10; assay: Biacore 2000 (SPR)
recombinant human IP-10 [14] = molecular target: T1, recombinant human IP-10; assay: Biacore 2000 (SPR), antibody captured by goat anti-human IgG Fc, human IP-10 injected
recombinant human IP-10 [15] = molecular target: T1, recombinant human IP-10; assay: competition ELISA on coated human IP-10; average
recombinant human IP-10 [16] = molecular target: T1, recombinant human IP-10; assay: competition ELISA on coated human IP-10; Exp. B
recombinant human IP-10 [17] = molecular target: T1, recombinant human IP-10; assay: competition ELISA on coated human IP-10; Exp. A
recombinant human IP-10 [18] = molecular target: T1, recombinant human IP-10; assay: competition ELISA on coated human IP-10; Exp. C
recombinant human IP-10 [19] = molecular target: T1, recombinant human IP-10; assay: cell-based or functional assay; remark: listed apart in the source
recombinant human IP-10 [20] = molecular target: T1, recombinant human IP-10; assay: competition ELISA on coated human IP-10; Exp. D
recombinant human IP-10 [21] = molecular target: T1, recombinant human IP-10; assay: competition ELISA on coated human IP-10; Exp. C; remark: listed apart in the source
recombinant human IP-10 [22] = molecular target: T1, recombinant human IP-10; assay: competition ELISA on coated human IP-10; Exp. A; remark: listed apart in the source
recombinant human IP-10 [23] = molecular target: T1, recombinant human IP-10; assay: Biacore (Table 3)
recombinant human IP-10 [24] = molecular target: T1, recombinant human IP-10; assay: competition ELISA on coated human IP-10; average; remark: listed apart in the source
recombinant human IP-10 [25] = molecular target: T1, recombinant human IP-10; assay: competition ELISA on coated human IP-10; Exp. B; remark: listed apart in the source

B1: murine monoclonal antibody AIP12 (antibody, V domains shown)
VH: QIQLVQSGPELKKPGETVKISCKASGYTFTDYSMHWVKQAPGKGLKWMGWINTETGEPTYADDFKGRFAFSLETSASTAYLQINNLKNEDTATYFCARNYDYDGYFDVWGAGTTVTVSS
VL: DIQMTQSPSSLSASLGGKVTITCKASQDINKYIAWYQHKPGKGPRLLIHYTSTLQPGIPSRFSGSGSGRDYSFSISNLEPEDIATYYCLQYDNLLFTFGSGTKLEIK
notes: Mouse hybridoma antibody; also called MuAIP12
inhibition of chemotaxis (IC50%) on recombinant IP-10, donor 215 (recombinant human IP-10 [1]): 0.13 µg/mL | inhibition of chemotaxis (IC50%) on recombinant IP-10, donor 318 (recombinant human IP-10 [1]): 0.041 µg/mL | inhibition of chemotaxis (IC50%) on recombinant IP-10, donor 1012 (recombinant human IP-10 [1]): 0.091 µg/mL | inhibition of chemotaxis (IC50%) on recombinant IP-10, donor 1022 (recombinant human IP-10 [1]): 0.135 µg/mL and 0.051 µg/mL and 0.086 µg/mL | inhibition of chemotaxis (IC50%) on recombinant IP-10, mean of donors (recombinant human IP-10 [1]): 0.089 µg/mL | IC50 (recombinant human IP-10 [2]): 4.4 µg/mL | IC50 (recombinant human IP-10 [3]): 6.6 µg/mL | Kd (recombinant human IP-10 [4]): 0.275 nM | koff (recombinant human IP-10 [4]): 0.000282 s⁻¹ | kon (recombinant human IP-10 [4]): 1.05e+06 M⁻¹ s⁻¹ | IC50 (recombinant human IP-10 [5]): 6.5 µg/mL | IC50 (recombinant human IP-10 [6]): 5.4 µg/mL | IC50 (recombinant human IP-10 [7]): 4.2 µg/mL

B3: HuAIP12 G104A variant antibody (antibody, human IgG1, V domains shown)
VH: EVQLVQSGAEVKKPGATVKISCKVSGYTFTDYSMHWVRQAPGKGLKWMGWINTETGEPTYADDFKGRFTFTLDTSTSTAYMELSSLRSEDTAVYYCARNYDYDAYFDVWGQGTTVTVSS
VL: DIQMTQSPSSLSASVGDRVTITCKASQDINKYIAWYQQKPGKAPKLLIHYTSTLQPGIPSRFSGSGSGRDYTFTISSLQPEDIATYYCLQYDNLLFTFGQGTKLEIK
notes: Human IgG1/kappa (gamma-1 and kappa expression vectors), transiently expressed in 293-H cells
IC50 (recombinant human IP-10 [12]): 59.5 µg/mL | fold decrease in binding affinity against unmodified HuAIP12 (recombinant human IP-10 [12]): 14.5 fold | fold faster off-rate (kd) against unmodified HuAIP12 (recombinant human IP-10 [13]): ~2 fold | fold higher Kd against unmodified HuAIP12 (recombinant human IP-10 [13]): > 20 fold | fold slower on-rate (ka) against unmodified HuAIP12 (recombinant human IP-10 [13]): ~10 fold | fold weaker monovalent interaction against unmodified HuAIP12 (recombinant human IP-10 [13]): 20 fold | Kd (recombinant human IP-10 [14]): 5.98 nM | koff (recombinant human IP-10 [14]): 0.000784 s⁻¹ | kon (recombinant human IP-10 [14]): 131000 M⁻¹ s⁻¹

B4: HuAIP12 T55I variant antibody (antibody, V domains shown)
VH: B3 VH with T55I, A104G
VL: B3 VL
IC50 (recombinant human IP-10 [12]): 1.6 µg/mL | fold slower off-rate against unmodified HuAIP12 (recombinant human IP-10 [13]): ~9 fold | fold stronger affinity against unmodified HuAIP12 (recombinant human IP-10 [13]): > 9 fold | Kd (recombinant human IP-10 [14]): 0.0269 nM | koff (recombinant human IP-10 [14]): 4.67e-05 s⁻¹ | kon (recombinant human IP-10 [14]): 1.66e+06 M⁻¹ s⁻¹

B5: 13H+12L antibody (antibody, V domains shown)
VH: B3 VH with T55I
VL: B3 VL
notes: HuAIP13 heavy chain with HuAIP12 light chain; human gamma-1/kappa
IC50 (recombinant human IP-10 [12]): 13.6 µg/mL

B6: 12H+13L antibody (antibody, V domains shown)
VH: B3 VH with A104G
VL: B3 VL with S26D, I48L, Y50H, N93S
notes: HuAIP12 heavy chain with HuAIP13 light chain; human gamma-1/kappa
IC50 (recombinant human IP-10 [12]): 3 µg/mL

More lines, now with the values ahead:

inhibition of chemotaxis (IC50%) on recombinant IP-10, donor 215 (recombinant human IP-10 [1]): 0.26 µg/mL | inhibition of chemotaxis (IC50%) on recombinant IP-10, donor 318 (recombinant human IP-10 [1]): 0.139 µg/mL | inhibition of chemotaxis (IC50%) on recombinant IP-10, donor 1012 (recombinant human IP-10 [1]): 0.084 µg/mL | inhibition of chemotaxis (IC50%) on recombinant IP-10, donor 1022 (recombinant human IP-10 [1]): 0.229 µg/mL and 0.154 µg/mL and 0.078 µg/mL | inhibition of chemotaxis (IC50%) on recombinant IP-10, mean of donors (recombinant human IP-10 [1]): 0.157 µg/mL | IC50 (recombinant human IP-10 [8]): 2.1 µg/mL | Kd (recombinant human IP-10 [4]): 1.24 nM | koff (recombinant human IP-10 [4]): 0.000196 s⁻¹ | kon (recombinant human IP-10 [4]): 158000 M⁻¹ s⁻¹ | IC50 (recombinant human IP-10 [9]): 2.1 µg/mL | IC50 (recombinant human IP-10 [10]): 1.8 µg/mL | IC50 (recombinant human IP-10 [11]): 2.4 µg/mL
B2: murine monoclonal antibody AIP13 (antibody, V domains shown)
VH: B1 VH with T55I, G104A
VL: B1 VL with S26D, K42R, I48L, Y50H, E81A, N93S
notes: Mouse hybridoma antibody; Mouse IgG1/kappa was used as its isotype control; also called MuAIP13

inhibition of chemotaxis (IC50%) on recombinant IP-10, donor 215 (recombinant human IP-10 [1]): 0.139 µg/mL | inhibition of chemotaxis (IC50%) on recombinant IP-10, donor 318 (recombinant human IP-10 [1]): 0.045 µg/mL | inhibition of chemotaxis (IC50%) on recombinant IP-10, donor 1012 (recombinant human IP-10 [1]): 0.077 µg/mL | inhibition of chemotaxis (IC50%) on recombinant IP-10, mean of donors (recombinant human IP-10 [1]): 0.086 µg/mL | IC50 (recombinant human IP-10 [8]): 6.1 µg/mL | fold difference of IC50 against MuAIP13 (recombinant human IP-10 [15]): 2.8 fold | IC50 (recombinant human IP-10 [12]): 9.2 µg/mL | fold difference of IC50 against MuAIP13 (recombinant human IP-10 [16]): 2.7 fold | Kd (recombinant human IP-10 [4]): 1.24 nM | koff (recombinant human IP-10 [4]): 0.000194 s⁻¹ | kon (recombinant human IP-10 [4]): 156000 M⁻¹ s⁻¹ | IC50 (recombinant human IP-10 [9]): 5.8 µg/mL | fold difference of IC50 against MuAIP13 (recombinant human IP-10 [17]): 2.9 fold | fold difference of IC50 against MuAIP13 (recombinant human IP-10 [18]): 2.7 fold | IC50 (recombinant human IP-10 [10]): 4.8 µg/mL | IC50 (recombinant human IP-10 [11]): 6.5 µg/mL | IC50 of inhibition of IP-10 mediated chemotaxis (recombinant human IP-10 [19]): ~0.1 µg/mL
B7: humanized monoclonal antibody HuAIP13 (antibody, human IgG1, V domains shown)
VH: B3 VH with T55I
VL: B3 VL with S26D, I48L, Y50H, N93S
notes: Human IgG1/kappa

inhibition of chemotaxis (IC50%) on recombinant IP-10, donor 215 (recombinant human IP-10 [1]): 0.142 µg/mL | inhibition of chemotaxis (IC50%) on recombinant IP-10, donor 318 (recombinant human IP-10 [1]): 0.038 µg/mL | inhibition of chemotaxis (IC50%) on recombinant IP-10, donor 1012 (recombinant human IP-10 [1]): 0.073 µg/mL | inhibition of chemotaxis (IC50%) on recombinant IP-10, mean of donors (recombinant human IP-10 [1]): 0.086 µg/mL | fold difference of IC50 against MuAIP12 (recombinant human IP-10 [20]): 2.4 fold | fold difference of IC50 against MuAIP12 (recombinant human IP-10 [21]): 2.2 fold | IC50 (recombinant human IP-10 [2]): 10.7 µg/mL | IC50 (recombinant human IP-10 [3]): 14.5 µg/mL | IC50 (recombinant human IP-10 [12]): 3.1 µg/mL and 4.1 µg/mL | fold difference of IC50 against MuAIP12 (recombinant human IP-10 [22]): 2.9 fold | Kd (recombinant human IP-10 [4]): 0.472 nM | koff (recombinant human IP-10 [4]): 0.000357 s⁻¹ | kon (recombinant human IP-10 [4]): 755000 M⁻¹ s⁻¹ | IC50 (recombinant human IP-10 [5]): 18.6 µg/mL | fold higher binding affinity than HuAIP13 (recombinant human IP-10 [23]): ~2.6 fold | IC50 (recombinant human IP-10 [6]): 13.5 µg/mL | fold difference of IC50 against MuAIP12 (recombinant human IP-10 [24]): 2.5 fold | fold difference of IC50 against MuAIP12 (recombinant human IP-10 [25]): 2.4 fold | Kd (recombinant human IP-10 [14]): 0.251 nM | koff (recombinant human IP-10 [14]): 0.000381 s⁻¹ | kon (recombinant human IP-10 [14]): 1.55e+06 M⁻¹ s⁻¹ | IC50 of inhibition of IP-10 mediated chemotaxis (recombinant human IP-10 [19]): ~0.1 µg/mL | IC50 (recombinant human IP-10 [7]): 10.3 µg/mL
B8: humanized monoclonal antibody HuAIP12 (antibody, human IgG1, V domains shown)
VH: B3 VH with A104G
VL: B3 VL
notes: Human IgG1/kappa; also called unmodified HuAIP12; Wild Type
